Measurements from publication PMC5762396 (Archives of biochemistry and biophysics, 2017).

Biological target: G-actin (WT α-skeletal muscle actin from chicken) (chicken, UniProt P68139 1-377)
Assay: atomic force microscopy

Row | Binder | peak value of unbinding force
1 | Tmod2_(1-346) (domain or fragment) MALPFQKGLEKYKNIDEDELLGKLSEEELKQLENVLDDLDPESATLPAGFRQKDQTQKAATGPFDREHLLMYLEKEALEQKDREDFVPFTGEKKGRVFIPKEKPVETRKEEKVTLDPELEEALASASDTELYDLAAVLGVHNLLNNPKFDEETTNGEGRKGPVRNVVKGEKAKPVFEEPPNPTNVEASLQQMKANDPSLQEVNLNNIKNIPIPTLKEFAKSLETNTHVKKFSLAATRSNDPVALAFAEMLKVNKTLKSLNVESNFITGTGILALVEALRENDTLTEIKIDNQRQQLGTAVEMEIAQMLEENSRILKFGYQFTKQGPRTRVAAAITKNNDLVRKKRV | 64 ± 3.6 pN
2 | Tmod2[L73D] (natural protein) MALPFQKGLEKYKNIDEDELLGKLSEEELKQLENVLDDLDPESATLPAGFRQKDQTQKAATGPFDREHLLMYDEKEALEQKDREDFVPFTGEKKGRVFIPKEKPVETRKEEKVTLDPELEEALASASDTELYDLAAVLGVHNLLNNPKFDEETTNGEGRKGPVRNVVKGEKAKPVFEEPPNPTNVEASLQQMKANDPSLQEVNLNNIKNIPIPTLKEFAKSLETNTHVKKFSLAATRSNDPVALAFAEMLKVNKTLKSLNVESNFITGTGILALVEALRENDTLTEIKIDNQRQQLGTAVEMEIAQMLEENSRILKFGYQFTKQGPRTRVAAAITKNNDLVRKKRVEGDRR | 105 ± 2.2 pN
